Here are results for 21 molecules from US20250011468A1 (Novo Nordisk, published 2025).

B1: mAb4-3505 (monovalent one-armed version of mAb1-5797) (antibody, V domains shown)
VH: EVQLVQSGAEVKKPGESLRISCKGSGYRFTSYWIGWVRQMPGKGLEWMGMIDPTDSYTDYGPSFHGHVTISADKSISTAYLQWSSLKASDTAMYYCARMRIMSGAFDIWGQGTMVTVSS
VL: DIVMTQSPLSLPVTPGEPASISCRSSQSLLHSTWYNYLNWYLQKPGQSPQLLIYLGSRRASGVPDRFSGSGSGTDFTLKISRVEAEDVGVYYCMQVLHIPYTFGQGTKLEIK
B2: mAb4-3490 (monovalent one-armed version of mAb1-5783) (antibody, V domains shown)
VH: EVQLVQSGAEVKKPGESLRISCKGSGYSFRPYWIGWVRQMPGKGLEWMGMIDPSDSYTDYGPSFRGHVTISADKSISTAYLQWSSLKASDTAMYYCARVRIRAGAFDIWGQGTMVTVSS
VL: DIVMTQSPLSLPVTPGEPASISCRSSQSLLHRTWYNYLNWYLQKPGQSPQLLIYLGRNRASGVPDRFSGSGSGTDFTLKISRVEAEDVGVYYCMQVLHIPYTFGQGTKLEIK
B3: mAb4-3486 (monovalent one-armed version of mAb1-5781) (antibody, V domains shown)
VH: EVQLVQSGAEVKKPGESLRISCKGSGYSFKPYWIGWVRQMPGKGLEWMGMIDPSDSYTDYGPSFRGHVTISADKSISTAYLQWSSLKASDTAMYYCARVRIRAGAFDIWGQGTMVTVSS
VL: DIVMTQSPLSLPVTPGEPASISCRSSQSLLHRTWYNYLNWYLQKPGQSPQLLIYLGRNRASGVPDRFSGSGSGTDFTLKISRVEAEDVGVYYCMQVLHIPYTFGQGTKLEIK
B4: mAb4-5375 (monovalent one-armed version of mAb1-6609) (antibody, V domains shown)
VH: EVQLVQSGAEVKKPGESLRISCKGSGYRFTPYWIGWVRQMPGKGLEWMGMIDPTDSYTDYGPSFRGHVTISADKSISTAYLQWSSLKASDTAMYYCARVRIRSGAFDIWGQGTMVTVSS
VL: DIVMTQSPLSLPVTPGEPASISCRSSQSLLHSTWYNYLNWYLQKPGQSPQLLIYLGSNRASGVPDRFSGSGSGTDFTLKISRVEAEDVGVYYCMQALHIPYTFGQGTKLEIK
B5: mAb4-3503 (monovalent one-armed version of mAb1-5796) (antibody, V domains shown)
VH: EVQLVQSGAEVKKPGESLRISCKGSGYSFRPYWIGWVRQMPGKGLEWMGMIDPSDSYTDYGPSFHGHVTISADKSISTAYLQWSSLKASDTAMYYCARVRIMSGAFDIWGQGTMVTVSS
VL: DIVMTQSPLSLPVTPGEPASISCRSSQSLLHSTWYNYLNWYLQKPGQSPQLLIYLGKNRASGVPDRFSGSGSGTDFTLKISRVEAEDVGVYYCMQVLHIPYTFGQGTKLEIK
B6: mAb4-5368 (monovalent one-armed version of mAb1-6606) (antibody, V domains shown)
VH: EVQLVQSGAEVKKPGESLRISCKGSGYSFRPYWIGWVRQMPGKGLEWMGMIDPSDSYTDYGPSFEGHVTISADKSISTAYLQWSSLKASDTAMYYCARVRIRAGAFDIWGQGTMVTVSS
VL: DIVMTQSPLSLPVTPGEPASISCRSSQSLLHSTWYNYLNWYLQKPGQSPQLLIYLGSNRASGVPDRFSGSGSGTDFTLKISRVEAEDVGVYYCMQALHIPYTFGQGTKLEIK
B7: mAb4-3461 (monovalent one-armed version of mAb1-5754) (antibody, V domains shown)
VH: EVQLVQSGAEVKKPGESLRISCKGSGYSFRPYWIGWVRQMPGKGLEWMGMIDPSDSYTDYGPSFEGHVTISADKSISTAYLQWSSLKASDTAMYYCARVRIRAGAFDIWGQGTMVTVSS
VL: DIVMTQSPLSLPVTPGEPASISCRSSQRLLHSTGYNYLNWYLQKPGQSPQLLIYLGKNRASGVPDRFSGSGSGTDFTLKISRVEAEDVGVYYCMQVLHIPYTFGQGTKLEIK
B8: mAb4-9578 (monovalent one-armed version of mAb1-7977) (antibody, V domains shown)
VH: EVQLVESGGGLVQPGRSLKLSCAASGFRFDDYAMHWVRQAPGKGLEWVSGISWRGAQIGYADSVKGRFTISRDNAKNSLYLQLNSLRAEDTALYYCAKSYGSGSFYNAFDSWGQGTLVTVSS
VL: DIQMTQSPSTLSASVGDRVTITCRASQKISSWLAWYQQKPGKAPKFLIYKASRLDRGVPSRFSGSGSGTEFSLTISSLQPDDFATYYCLEYRSYIRTFGQGTKVEIK
B9: mAb5-2035 (monovalent one-armed version of mAb1-9285) (antibody, V domains shown)
VH: EVQLVESGGGLVQPGRSLKLSCAASGFTFDDYAMHWVRQVPGKGLEWVSGISWRGDIIGYVKSVKGRFTISRDNAKNSLYLQLNSLRIEDTALYYCVKSYGSGSFYNAFDSWGQGTLVTVSS
VL: DIQMTQSPSTLSASAGDRVTITCRASKSISSWLAWYQQKPGKAPKFLIYKASRLERGVPSRFSGSGSGTEFSLTISSLQPDDFATYYCLEYSSYIRTFGQGTKVEIK
B10: mAb5-0658 (monovalent one-armed version of mAb1-8679) (antibody, V domains shown)
VH: EVQLVESGGGLVQPGRSLKLSCAASGFTFDDYAMHWVRQVPGKGLEWVSGISWRGDIIGYVKSVKGRFTISRDNAKNSLYLQLNSLRAEDTALYYCVKSYGSGSFYNAFDSWGQGTLVTVSS
VL: DIQMTQSPSTLSASVGDRVTITCRASKSIKSWLAWYQQKPGKAPKFLIYKASRLERGVPSRFSGSGSGTEFSLTISSLQPDDFATYYCLEYSSYIRTFGQGTKVEIK
B11: mAb5-1270 (monovalent one-armed version of mAb1-9016) (antibody, V domains shown)
VH: EVQLVESGGGLVQPGRSLKLSCAASGFTFDDYAMHWVRQVPGKGLEWVSGISWRGDIGGYVDSVKGRFTISRDNAKNSLYLQLNSLRAEDTALYYCVKSYGSGSFYNAFDSWGQGTLVTVSS
VL: DIQMTQSPSTLSASAGDRVTITCRASQSISSWLAWYQQKPGKAPKFLIYKASRLERGVPSRFSGSGSGTEFSLTISSLQPDDFATYYCLEYSSYIRTFGQGTKVEIK
B12: mAb5-0161 (monovalent one-armed version of mAb1-8785) (antibody, V domains shown)
VH: EVQLVESGGGLVQPGRSLKLSCAASGFTFHDYAMHWVRQVPGKGLEWVSGISWRGDIIGYVDSVKGRFTISRDNKKNSLYLQLNSLRAEDTALYYCVKSYGSGSFYNAFDSWGQGTLVTVSS
VL: DIQMTQSPSTLSASAGDRVTITCRASQSISSWLAWYQQKPGKAPKFLIYKASRLDRGVPSRFSGSGSGTEFSLTISSLQPDDFATYYCLEYSSYIRTFGQGTKVEIK
B13: mAb5-0900 (monovalent one-armed version of mAb1-8459) (antibody, V domains shown)
VH: EVQLVESGGGLVQPGRSLKLSCAASGFTFDDYAMHWVRQVPGKGLEWVSGISWRGDIIGYVKSVKGRFTISRDNAKNSLYLQLNSLRIEDTALYYCVKSYGSGSFYNAFDSWGQGTLVTVSS
VL: DIQMTQSPSTLSASAGDRVTITCRASKSISSWLAWYQQKPGKAPKFLIYKAERLERGVPSRFSGSGSGTEFSLTISSLQPDDFATYYCLEYSSYIRTFGQGTKVEIK
B14: mAb5-0152 (monovalent one-armed version of mAb1-8782) (antibody, V domains shown)
VH: EVQLVESGGGLVQPGRSLKLSCAASGFTFHDYAMHWVRQVPGKGLEWVSGISWRGDITGYVDSVKGRFTISRDNAKNSLYLQLNSLRAEDTALYYCVKSYGSGSFYNAFDSWGQGTLVTVSS
VL: DIQMTQSPSTLSASAGDRVTITCRASQSISSWLAWYQQKPGKAPKFLIYKASRLDRGVPSRFSGSGSGTEFSLTISSLQPDDFATYYCLEYSSYIRTFGQGTKVEIK
B15: mAb5-0908 (monovalent one-armed version of mAb1-8467) (antibody, V domains shown)
VH: EVQLVESGGGLVQPGRSLKLSCAASKFRFDDYAMHWVRQVPGKGLEWVSGISWRGDIIGYVDSVKGRFTISRDNEKNSLYLQLNSLRAEDTALYYCVKSYGSGSFYNAFDSWGQGTLVTVSS
VL: DIQMTQSPSTLSASAGDRVTITCRASKSISSWLAWYQQKPGKAPKFLIYKASRLERGVPSRFSGSGSGTEFSLTISSLQPDDFATYYCLEYSSYIRTFGQGTKVEIK
B16: mAb5-0144 (monovalent one-armed version of mAb1-8780) (antibody, V domains shown)
VH: EVQLVESGGGLVQPGRSLKLSCAASGFTFHDYAMHWVRQVPGKGLEWVSGISWRGDIKGYVDSVKGRFTISRDNAKNSLYLQLNSLRAEDTALYYCVKSYGSGSFYNAFDSWGQGTLVTVSS
VL: DIQMTQSPSTLSASAGDRVTITCRASQSISSWLAWYQQKPGKAPKFLIYKASRLDRGVPSRFSGSGSGTEFSLTISSLQPDDFATYYCLEYSSYIRTFGQGTKVEIK
B17: mAb5-1257 (monovalent one-armed version of mAb1-9002) (antibody, V domains shown)
VH: EVQLVESGGGLVQPGRSLKLSCAASKFTFDDYAMHWVRQVPGKGLEWVSGISWRGDIIGYVDSVKGRFTISRDNAKNSLYLQLNSLRAEDTALYYCVKSYGSGSFYNAFDSWGQGTLVTVSS
VL: DIQMTQSPSTLSASAGDRVTITCRASQSISSWLAWYQQKPGKAPKFLIYKASRLERGVPSRFSGSGSGTEFSLTISSLQPDDFATYYCLEYSSYIRTFGQGTKVEIK
B18: mAb5-1263 (monovalent one-armed version of mAb1-9015) (antibody, V domains shown)
VH: EVQLVESGGGLVQPGRSLKLSCAASGFTFDDYAMHWVRQVPGKGLEWVSGISWRGDIKGYVDSVKGRFTISRDNAKNSLYLQLNSLRAEDTALYYCVKSYGSGSFYNAFDSWGQGTLVTVSS
VL: DIQMTQSPSTLSASAGDRVTITCRASQSISSWLAWYQQKPGKAPKFLIYKASRLERGVPSRFSGSGSGTEFSLTISSLQPDDFATYYCLEYSSYIRTFGQGTKVEIK
B19: mAb5-0514 (monovalent one-armed version of mAb1-8543) (antibody, V domains shown)
VH: EVQLVESGGGLVQPGRSLKLSCAASKFRFDDYAMHWVRQVPGKGLEWVSGISWRGDIIGYVDSVKGRFTISRDNEKNSLYLQLNSLRAEDTALYYCVKSYGSGSFYNAFDSWGQGTLVTVSS
VL: DIQMTQSPSTLSASAGDRVTITCRASQSISSWLAWYQQKPGKAPKFLIYKASRLERDVPSRFSGSGSGTEFSLTISSLQPDDFATYYCLEYRSYIRTFGQGTKVEIK
B20: mAb5-1528 (monovalent one-armed version of mAb1-9058) (antibody, V domains shown)
VH: EVQLVESGGGLVQPGRSLKLSCAASGFTFHDYAMHWVRQVPGKGLEWVSGISWRGDIIGYVDSVKGRFTISRDNAKNSLYLQLNSLRAEDTALYYCVKSYGSGSFYNAFDSWGQGTLVTVSS
VL: DIQMTQSPSTLSASAGDRVTISCRASQSISSWLAWYQQKPGKAPKFLIYKASRLDRGVPSRFSGSGSGTEFTLTISSLQPDDFATYYCLEYNSYIRTFGQGTKVEIK
B21: mAb5-1695 (monovalent one-armed version of mAb1-9134) (antibody, V domains shown)
VH: EVQLVESGGGLVQPGRSLKLSCAASGFTFDDYAMHWVRQVPGKGLEWVSGISWKGDIIGYVDSVKGRFTISRDNAKNSLYLQLNSLRAEDTALYYCVKSYGSGSFYNAFDSWGQGTLVTVSS
VL: DIQMTQSPSTLSASAGDRVTITCRASQSISEWLAWYQQKPGKAPKFLIYKASRLDRGVPSRFSGSGSGTEFSLTISSLQPDDFATYYCLEYSSYIRTFGQGTKVEIK

For this assay, the target named is human plasma-derived FIXa (Haematologic Technologies Inc) (human, UniProt P00740 47-191; P00740 227-461). Put plainly: cell-based or functional assay.
Sequence of human plasma-derived FIXa (Haematologic Technologies Inc) (P00740 47-191, chain 1 of 2): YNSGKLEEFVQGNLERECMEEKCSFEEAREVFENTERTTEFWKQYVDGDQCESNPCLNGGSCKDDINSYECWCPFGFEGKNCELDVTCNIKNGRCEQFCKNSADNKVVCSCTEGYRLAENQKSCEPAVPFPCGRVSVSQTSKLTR
Sequence of human plasma-derived FIXa (Haematologic Technologies Inc) (P00740 227-461, chain 2 of 2): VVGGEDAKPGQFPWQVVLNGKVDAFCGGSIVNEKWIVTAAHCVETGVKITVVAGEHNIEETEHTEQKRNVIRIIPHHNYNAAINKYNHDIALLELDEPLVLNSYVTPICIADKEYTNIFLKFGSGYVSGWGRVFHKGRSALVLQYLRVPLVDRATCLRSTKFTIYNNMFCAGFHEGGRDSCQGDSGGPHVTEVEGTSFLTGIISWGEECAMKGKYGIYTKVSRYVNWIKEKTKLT
Turning to B1, the “Stimulation index at 474 nM OA antibody” value was 382 fold.

For B2, the “Stimulation index at 264 nM OA antibody” value was 1040 fold.

Consider B3, for which the “Stimulation index at 564 nM OA antibody” value was determined as 1220 fold.

For B4, the “Stimulation index at 800 nM OA antibody” value turned out to be 94 fold.

As for B5, the “Stimulation index at 900 nM OA antibody” value was found to be 239 fold.

As to B6, the “Stimulation index at 800 nM OA antibody” value amounted to 133 fold.

Regarding B7, the “Stimulation index at 1478 nM OA antibody” value was found to be 615 fold.

Turning to B8, the “Stimulation index at 800 nM OA antibody” value is 850 fold.

As to B9, the “Stimulation index at 800 nM OA antibody” value amounted to 732 fold.

As for B10, the “Stimulation index at 1600 nM OA antibody” value came out at 918 fold.

Consider B11, for which the “Stimulation index at 1600 nM OA antibody” value was 4320 fold.

Turning to B12, the “Stimulation index at 800 nM OA antibody” value turned out to be 621 fold.

Consider B13, for which the “Stimulation index at 1600 nM OA antibody” value worked out at 799 fold.

For B14, the “Stimulation index at 1600 nM OA antibody” value is 417 fold.

With B15, the “Stimulation index at 1600 nM OA antibody” value came out at 1020 fold.

As to B16, the “Stimulation index at 1600 nM OA antibody” value turned out to be 1650 fold.

As to B17, the “Stimulation index at 800 nM OA antibody” value was 567 fold.

For B18, the “Stimulation index at 1600 nM OA antibody” value stood at 1330 fold.

Turning to B19, the “Stimulation index at 1600 nM OA antibody” value is 283 fold.

On to B20, for which the “Stimulation index at 1600 nM OA antibody” value was 531 fold.

For the molecule B21, the “Stimulation index at 1600 nM OA antibody” value amounted to 320 fold.
